For the data set, the system named is MS2 coat protein. Nature of the data set: apparent KD of MS2 coat protein; designed switch direction (-1 OFF switch, 1 ON switch): -1; higher = weaker reporter binding. An outline of the steps: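 Designed RNA switches with common flanks were made on Illumina chips by stalled E. coli RNA polymerase. Titration with SNAP-549-labelled MS2 coat protein doubled from 0.7 or 1.5 nM up to 3 µM. Apparent KD is each design's median over clusters after curve-fitting normalised fluorescence.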

[1] abbreviates: Eterna round: R95, input ligand: FMN 200 uM.
The mark [2] stands for this setting: Eterna round: R95, input ligand: microRNA oligo, concentration not stated.
[3] abbreviates: Eterna round: R95, input ligand: none.
The mark [4] stands for this setting: input ligand: microRNA oligo, concentration not stated.

With “ACAAGCUUUUUGUUCGUCUUAUAAUAAUAAAUAAAUAUAACAUGAGGAUCACCCAUGUUGAGAAGACGGCCUCAUGU [Sesor Array 22 - Jieux - Sensor v3, turn-off variant 2] (puzzle: Sensor v3, turn-off variant 2)”, the “apparent KD of MS2 coat protein” value is, setting by setting: under setting [1], 134 nM; under setting [2], 31.8 nM; under setting [3], 203 nM.

Take “AAAUUGUGAGGAUAUUAGUUGUACGUCAAUAGACGUAUAAGUGAGAAGGCACAUGAGGAUCACCCAUGUUCCUG [Omei Ex4 Mod of Mat's R95 mod of Omei] (Eterna round: R97, puzzle: Exclusion 4)”: the “apparent KD of MS2 coat protein” value is 61.8 nM (input ligand: FMN 200 uM) and 16.8 nM (input ligand: none).

Consider “CCAGCAAUUGUCAGGAUAUGCUGGUCCUUGGAUCAGCAGAAGGGACAUGAGGAUCACCCAUGUGGAAAAGCUGG [Eli bmx4 4.64] (Eterna round: R97, puzzle: Brourd's mod of Exclusion 4)”, for which the “apparent KD of MS2 coat protein” value was determined as 231 nM (input ligand: FMN 200 uM) and 54.7 nM (input ligand: none).

In the case of “UAAAAUAGUGUGAGGAUAUGCUGGUCCUUGGAUCAGCAGAAGGCACAUGAGGAUCACCCAUGUAAAUAAUAAUA [Mat - Exclusion 4 - JL Mod - D27] (puzzle: Brourd's mod of Exclusion 4)”, the “apparent KD of MS2 coat protein” value worked out at 184 nM under setting [1], 54.6 nM under setting [2] and 67.1 nM under setting [3].

Regarding “UGCUAGUCAGGAUAUACGAACAUGUCAAAAGACGUGAAGGGACAUGAGGAUCACCCAUGUAGAAGGGACUAGCG [salish99_ex2_r3_007] (puzzle: Exclusion 2)”, the “apparent KD of MS2 coat protein” value reads like this: under setting [1], 144 nM; under setting [2], 27.2 nM; under setting [3], 27.9 nM.

In the case of “AUGCGUGGCUAGGAUAUUGAGGAAUUUAGCCAGCGAGAAGGAGCCACAUGAGGAUCACCCAUGUGGUGAACCUC [jl-ex6-4.60 ViennaUCT mod] (Eterna round: R97, puzzle: Exclusion 6)”, the “apparent KD of MS2 coat protein” value by setting is: (input ligand: FMN 200 uM) 17.7 nM; (input ligand: none) 18.5 nM.

As for “GUGAUCUAUCAUGUAAUGAACAUGAGGAUCACCCAUGUAGACAAGUUUUUUGCUCGUCUCAUAAUAAGAUAGAUCAC [Antenna 17 - Jieux - Sensor, turn-off variant 1] (Eterna round: R97, puzzle: Sensor, turn-off variant 1)”, the “apparent KD of MS2 coat protein” value is, setting by setting: (input ligand: FMN 200 uM) 17.5 nM; (input ligand: none) 19.3 nM.

Consider “GAGUGCUGAGGAUAUACAUGAGGAUCACCCAUGUGCUUCAGCUAGGAGACUAGCAUCGGUAGAAGGCAGUACUC [Mod of lroppy 18 - Jieux - Exclusion 3] (Eterna round: R97, puzzle: Exclusion 3)”, for which the “apparent KD of MS2 coat protein” value was found to be 60.1 nM (input ligand: FMN 200 uM) and 17.2 nM (input ligand: none).

As to “UCGACUACAGUAGGAUAUGUAGGAUAUGUGGUUGAGGAUCACCCAACCACUUCAACGACAGAAGGACAGAAGGACUGACAACGU [pwkr exNG2 2xFMN 1xF5.3] (Eterna round: R96, puzzle: Exclusion NG 2)”, the “apparent KD of MS2 coat protein” value stood at 16.8 nM (input ligand: FMN 200 uM), 14.8 nM under setting [4] and 16.5 nM (input ligand: none).

For “CUCGGACAUGAGGAUCACCCAUGUGAGGAUAUGGUGCUAUCGUCAUUAGACGAUUGCGUUAGAAGGCACAUUUU [LRO-Excl1-29] (puzzle: Exclusion 1)”, the “apparent KD of MS2 coat protein” value under setting [2] is 29.5 nM.

Take “UGAUCUAGCGGAGGAUAUACAUGAGGAUCACCCAUGUAUAGUCUAUGACCGUAGUCGUGGACCGUGUAGAAGGCCGCUAGAUCU [JL ENG2 3.77] (Eterna round: R96, puzzle: Exclusion NG 2)”: the “apparent KD of MS2 coat protein” value turned out to be 16.5 nM (input ligand: FMN 200 uM), 11.4 nM under setting [4] and 11 nM (input ligand: none).

For “AGGUAGUCAGGAUAUUAAGAGUAGCGGGAUAACGCUACGAGUGAGAAGGGACAUGAGGAUCACCCAUGUUUUAA [JR_Ex4_Sub071] (Eterna round: R97, puzzle: Exclusion 4)”, the “apparent KD of MS2 coat protein” value was determined as 23.4 nM (input ligand: FMN 200 uM) and 23.2 nM (input ligand: none).

For the sequence “UUUUUUGGGCAAGGAUAUCCUGUGCGGUUCCGGCUCGUGUCUGUUACAUGAGGAUCACCCAUGUGGGAGAAGGUGCCUGUGGUU [Design 86] (Eterna round: R96, puzzle: Exclusion NG 2)”, the “apparent KD of MS2 coat protein” value reads like this: (input ligand: FMN 200 uM) 183 nM; under setting [4], 37.3 nM; (input ligand: none) 43 nM.

Regarding “CCGGAAAUGAAGGAUAUAGGUGUCGAUAGACUCCUAGAAGGUCAUACAUGAGGAUCACCCAUGUGUCCUACCGG [Fiskers Ex 6 - 76] (puzzle: Exclusion 6)”, the “apparent KD of MS2 coat protein” value under setting [2] was 15.6 nM.

Turning to “AAAUUGGUAGAGGAUAUCGUACAGGAAACAAUGCGAGAAGGCUGCACAUGAGGAUCACCCAUGUUCAGUUGCGA [EX6 #40] (Eterna round: R97, puzzle: Exclusion 6)”, the “apparent KD of MS2 coat protein” value by setting is: (input ligand: FMN 200 uM) 16.8 nM; (input ligand: none) 15.2 nM.

As for “UAUUUGUGAGGAUAUGAGUCGUAGAACAAUAGUACUACGUCUCAGAAGGCACAUGAGGAUCACCCAUGUACCUC [Fiskers Ex 4 Super Stable 44 mod 30] (puzzle: Exclusion 4)”, under setting [2], the “apparent KD of MS2 coat protein” value turned out to be 16.9 nM.

Turning to “GGGUGCAGGCUGAGGUCCUACAUGAGGAUCACCCAUGUGGUCCGGUGACGUGAGUCACCGGACUUGGCUCGUCUUGU [salish99_S_TOV1_R5_010] (Eterna round: R97, puzzle: Sensor, turn-off variant 1)”, the “apparent KD of MS2 coat protein” value by setting is: (input ligand: FMN 200 uM) 41.5 nM; (input ligand: none) 50.5 nM.

Take “AAUUAUUGAUGAGGAUAUUGUGGUGAAACACGACAAGAAGGCAUUAUUCACAUGAGGAUCACCCAUGUGAGCCUGGUGCAUAUA [Ex NG1 #61] (Eterna round: R96, puzzle: Exclusion NG 1)”: under setting [4], the “apparent KD of MS2 coat protein” value amounted to 11.6 nM.

As for “GUGAUAUAGUUAGUGGCCUACAUGAGGAUCACCCAUGUGAGGGAAAUGUUGAGGCGAAAGUUUUUUGCUCGUCUUUA [JR_SV3TOV1_Sub038] (puzzle: Sensor v3, turn-off variant 1)”, the “apparent KD of MS2 coat protein” value under setting [1] came to 18 nM, the “apparent KD of MS2 coat protein” value under setting [2] worked out at 38.6 nM and the “apparent KD of MS2 coat protein” value under setting [3] was 19.1 nM.

As for “CAGUACUGAGGAUAUACAUGAGGAUCACCCAUGUGUGUGAGAAUUGUGUGGUUGUUUUGUAGAAGGCGGUGCUG [JR_Ex3_Sub032] (Eterna round: R97, puzzle: Exclusion 3)”, the “apparent KD of MS2 coat protein” value runs as follows: (input ligand: FMN 200 uM) 326 nM; (input ligand: none) 346 nM.

Consider “GUAGAUCAGGCUUUCAUUGACAUGAGGAUCACCCAUGUUUUGAAAGGGUGAGAGAGGUGCUUCAUAUUCAGCUCUGA [JR_Sensorv2_tov_Sub1218] (Eterna round: R96, puzzle: Sensor v2, turn-off variant)”, for which the “apparent KD of MS2 coat protein” value is, setting by setting: (input ligand: FMN 200 uM) 76.4 nM; under setting [4], 55.3 nM; (input ligand: none) 61.1 nM.

As to “CACCGUUAGAGAGGAUAUCGUACAUGAGGAUCACCCAUGUAAUAAAUGAGAAUUUCGGAUGUAUGCGAGAAGGCUCAAAUCGGC [Ostracism 39 - Jieux - Exclusion NG 2] (Eterna round: R96, puzzle: Exclusion NG 2)”, the “apparent KD of MS2 coat protein” value runs as follows: (input ligand: FMN 200 uM) 42.1 nM; under setting [4], 42.5 nM; (input ligand: none) 60 nM.

As to “CUGCUGGAGCGGUGCUUUGGUCGUACAUGAGGAUCACCCAUGUAGGAUAUGGUAAAAUUUGCUUGCUAGAAGGAUAGAGUGGUC [salish99_ExNG3_r04_614] (Eterna round: R96, puzzle: Exclusion NG 3)”, the “apparent KD of MS2 coat protein” value by setting is: (input ligand: FMN 200 uM) 96.9 nM; under setting [4], 42.4 nM; (input ligand: none) 61.3 nM.

On to “AUGUUAUUGGAAGGAUAUGGUUUACUAUCCUAACAUGAGGAUCACCCAUGUAACCUUAUGUGUAUCCAGAAGGUCCAUAACUUA (Eterna round: R96, puzzle: Exclusion NG 2)”, for which the “apparent KD of MS2 coat protein” value by setting is: (input ligand: FMN 200 uM) 51.9 nM; under setting [4], 22.8 nM; (input ligand: none) 32.2 nM.

Take “ACAUGAGGAUCACCCAUGUUUGGUUGGUUUUCUCCGGCUGUUGAGGAUAUAGUCCGGUAUCCGCGCUAGAAGGUGAGGGUUGGC [Aenatbe mod 8] (Eterna round: R96, puzzle: Exclusion NG 3)”: the “apparent KD of MS2 coat protein” value runs as follows: (input ligand: FMN 200 uM) 123 nM; under setting [4], 123 nM; (input ligand: none) 131 nM.

On to “UGCCUUUGAGGAUAUACAUAGAAAUAGAUUCAUGUAAAACUACAUGAGGAUCACCCAUGUAGAAGGCAAGGGCU [Mat - Exclusion 2 - JL Mod - D52] (Eterna round: R97, puzzle: Exclusion 2)”, for which the “apparent KD of MS2 coat protein” value runs as follows: (input ligand: FMN 200 uM) 83.6 nM; (input ligand: none) 24 nM.

In the case of “AAUAAGUGAGGAUAUGCGUCUGGUCCCGGGAGGGCUAUAUAACAUGAGGAUCACCCAUGUAGAAGGCACAAUAA [Excls2IV] (puzzle: Exclusion 2)”, the “apparent KD of MS2 coat protein” value under setting [2] was 15.2 nM.

Regarding “GGGCUCGGUGUGAGGAUAUCGGGCCCGAAAGGGCCCGAGAAGGCACAUGAGGAUCACCCAUGUAAGUCGGGCUC [-38.1, -37 kcal, A 23%, 0-4] (Eterna round: R97, puzzle: Brourd's mod of Exclusion 4)”, the “apparent KD of MS2 coat protein” value was determined as 13.6 nM (input ligand: FMN 200 uM) and 14.1 nM (input ligand: none).

As for “GUCAUCAAACAUGGGUUAAACAUGAGGAUCACCCAUGUUAUCAAGUUUUUUGCUCGUCUUAUAAUAAGUUUGAUGAC [Antenna 12 - Jieux - Sensor, turn-off variant 1] (Eterna round: R97, puzzle: Sensor, turn-off variant 1)”, the “apparent KD of MS2 coat protein” value (input ligand: FMN 200 uM) was 35.7 nM and the “apparent KD of MS2 coat protein” value (input ligand: none) was 41 nM.

Consider “CUCUAGUCAGGAUAUUAGUUGUCGCCCAGCAACGGGCGACAUGAGAAGGGACUUGAGGAUCACCCAAGUAAACG [Leorteti] (Eterna round: R97, puzzle: Exclusion 4)”, for which the “apparent KD of MS2 coat protein” value by setting is: (input ligand: FMN 200 uM) 279 nM; (input ligand: none) 478 nM.
